These results are taken from publication PMC11931990, “Interaction between bacterial phytochromes Agp1 and Agp2 of Agrobacterium fabrum by fluorescence resonance energy transfer and docking studies” (Febs Letters, 2025).

Experiment [1] concerns the target Agp2, full length wild-type A. fabrum phytochrome, labeled with Atto-495 (Agrobacterium fabrum). The experiment can be described thus: FRET or BRET. On the technique in general: In BRET a luciferase serves as donor, and the signal depends on an acceptor being close.
In experiment [2] the target is Agp2-PCM, photosensory chromophore module of Agp2, labeled with Atto-495 (Agrobacterium fabrum). Put plainly: FRET or BRET.
In another experiment the target is T1, Agp2-PCM (Agrobacterium fabrum, UniProt A9CI81).
T1 construct: gene Atu2165; photosensory chromophore module (PAS, GAF, PHY)
T1 sequence (A9CI81 1-501): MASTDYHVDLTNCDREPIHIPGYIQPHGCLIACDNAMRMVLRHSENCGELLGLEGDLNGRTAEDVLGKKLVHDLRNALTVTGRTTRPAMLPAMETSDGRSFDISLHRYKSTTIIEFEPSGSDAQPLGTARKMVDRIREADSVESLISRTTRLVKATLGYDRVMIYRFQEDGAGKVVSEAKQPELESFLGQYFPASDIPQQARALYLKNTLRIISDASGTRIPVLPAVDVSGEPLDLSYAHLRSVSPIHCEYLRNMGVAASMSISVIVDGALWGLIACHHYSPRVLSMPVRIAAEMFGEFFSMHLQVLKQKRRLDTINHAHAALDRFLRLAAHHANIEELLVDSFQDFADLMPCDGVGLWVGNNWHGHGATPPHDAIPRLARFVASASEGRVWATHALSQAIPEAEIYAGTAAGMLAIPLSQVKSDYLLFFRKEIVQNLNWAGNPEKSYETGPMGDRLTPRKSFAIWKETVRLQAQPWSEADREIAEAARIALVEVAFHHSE
The experiment can be described thus: UV/vis absorbance after chromophore assembly and desalting. The class given is binding. As to conditions: covalent (Cys13); threefold molar excess BV, 2 h, RT, pH 7.8, 1 mM TCEP; Atto-495 labelled afterwards.

In the next experiment the target is T2, Agp2 (Agrobacterium fabrum, UniProt A9CI81).
T2 construct: gene Atu2165; full length (PAS-GAF-PHY-histidine kinase-response regulator), C-terminal His6, E. coli DH5-alpha, pAg2 (pET21b-based), purified apoprotein, homodimer
T2 sequence (A9CI81 1-850): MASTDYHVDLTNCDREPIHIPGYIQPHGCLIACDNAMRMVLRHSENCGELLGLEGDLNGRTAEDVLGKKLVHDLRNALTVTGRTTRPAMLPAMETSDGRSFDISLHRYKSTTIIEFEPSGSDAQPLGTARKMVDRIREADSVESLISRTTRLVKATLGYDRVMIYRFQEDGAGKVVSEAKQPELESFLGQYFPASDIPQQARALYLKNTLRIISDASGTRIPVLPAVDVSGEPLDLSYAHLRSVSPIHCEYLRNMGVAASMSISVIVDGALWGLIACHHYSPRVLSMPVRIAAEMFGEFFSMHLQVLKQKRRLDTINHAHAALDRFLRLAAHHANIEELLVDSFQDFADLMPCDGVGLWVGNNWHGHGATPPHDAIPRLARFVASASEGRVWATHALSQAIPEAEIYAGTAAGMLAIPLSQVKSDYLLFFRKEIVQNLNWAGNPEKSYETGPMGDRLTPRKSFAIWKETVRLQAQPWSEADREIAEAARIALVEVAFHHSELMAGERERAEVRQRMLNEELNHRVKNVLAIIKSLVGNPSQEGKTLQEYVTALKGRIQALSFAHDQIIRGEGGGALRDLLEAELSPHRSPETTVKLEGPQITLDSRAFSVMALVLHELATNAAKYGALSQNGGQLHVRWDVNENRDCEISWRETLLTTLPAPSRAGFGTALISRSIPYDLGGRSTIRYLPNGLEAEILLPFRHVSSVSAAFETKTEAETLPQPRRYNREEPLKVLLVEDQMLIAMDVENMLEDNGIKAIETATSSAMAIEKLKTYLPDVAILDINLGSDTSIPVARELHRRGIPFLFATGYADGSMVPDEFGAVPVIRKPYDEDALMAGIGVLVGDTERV
The experiment is described as above. The class given is binding. Conditions: covalent (Cys13); threefold molar excess BV, 2 h, RT, pH 7.8, 1 mM TCEP; Atto-495 labelled afterwards.

In experiment [1], “Agp1 R535C, full-length A. fabrum phytochrome Agp1 mutant labeled with Atto-565 (natural protein)” returned an E FRET (FRET transfer efficiency) of 0.21.

For “Agp1 K554C, full-length A. fabrum phytochrome Agp1 mutant labeled with Atto-565 (natural protein)”, the E FRET (FRET transfer efficiency) in experiment [1] was 0.28.

In experiment [1], “Agp1 S122C, full-length A. fabrum phytochrome Agp1 mutant labeled with Atto-565 (natural protein)” returned an E FRET (FRET transfer efficiency) of 0.09.

Turning to “Agp1 K517C, full-length A. fabrum phytochrome Agp1 mutant labeled with Atto-565 (natural protein)”, the results for the E FRET (FRET transfer efficiency) in experiment [1] and in experiment [2] were 0.15 and 0.14, respectively.

In experiment [1], “Agp1 A362C, full-length A. fabrum phytochrome Agp1 mutant labeled with Atto-565 (natural protein)” displayed an E FRET (FRET transfer efficiency) of 0.1.

For the molecule `C=CC1=C(C)/C(=C/C2=NC(=C\c3[nH]c(/C=C4\NC(=O)C(C)=C4C=C)c(C)c3CCC(=O)O)/C(CCC(=O)O)=C2C)NC1=O` [Biliverdin], on Agp2-PCM, the “Agp2 PCM” value is 0.98 ± 0.01 mol/mol. Moreover, on Agp2, the Agp2 came to 0.70 ± 0.04 mol/mol.

With “Agp1 R603C, full-length A. fabrum phytochrome Agp1 mutant labeled with Atto-565 (natural protein)”, the E FRET (FRET transfer efficiency) in experiment [1] was 0.2.
